In patent US8779109B2, “Growth hormones with prolonged in-vivo efficacy” (Novo Nordisk Health Care AG, priority 2010, dated 2014):
Read-outs that look alike come from different tables or passages of the source.

Legend:
plasma IGF-1 = assay: In vivo dose-response study in hypophysectomised Sprague Dawley rats (plasma IGF-1); conditions: Table 5
Experimental: The in vivo dose-response relationship is studied in hypophysectomised male Sprague Dawley rats. The hypophysectomised rat is a well known and recognised animal model of growth hormone deficiency, where no production of growth hormone occurs after the surgical removal of the pituitary gland. This also leads to low circulating levels of insulin-like growth factor-1 (IGF-1) another important clinical feature of growth hormone deficiency in humans.
The hypophysectomy is performed on 4 week old male rats weighing 90-100 g. The animals entering the study 3-4 weeks after the surgery weighing 100-110 g. Animals with a body weight gain of more than 10% during the 3-4 weeks after surgery are not allowed to enter the study.
Dose response studies are performed using five dose levels of compound 45.4 from 1-150 nmol/rat.

[1] = biological target: T1, human growth hormone receptor (BAF-3 GHR cells) (Homo sapiens, UniProt P10912); assay: BAF-3 GHR assay to determine growth hormone activity; type: cell-based, mouse; conditions: Table 5; relative to hGH = 1.0 (def)
T1 construct: expressed in transfected cells; host or cells: BAF-3 (murine pro-B lymphoid cell line)
T1 sequence (P10912 19-638): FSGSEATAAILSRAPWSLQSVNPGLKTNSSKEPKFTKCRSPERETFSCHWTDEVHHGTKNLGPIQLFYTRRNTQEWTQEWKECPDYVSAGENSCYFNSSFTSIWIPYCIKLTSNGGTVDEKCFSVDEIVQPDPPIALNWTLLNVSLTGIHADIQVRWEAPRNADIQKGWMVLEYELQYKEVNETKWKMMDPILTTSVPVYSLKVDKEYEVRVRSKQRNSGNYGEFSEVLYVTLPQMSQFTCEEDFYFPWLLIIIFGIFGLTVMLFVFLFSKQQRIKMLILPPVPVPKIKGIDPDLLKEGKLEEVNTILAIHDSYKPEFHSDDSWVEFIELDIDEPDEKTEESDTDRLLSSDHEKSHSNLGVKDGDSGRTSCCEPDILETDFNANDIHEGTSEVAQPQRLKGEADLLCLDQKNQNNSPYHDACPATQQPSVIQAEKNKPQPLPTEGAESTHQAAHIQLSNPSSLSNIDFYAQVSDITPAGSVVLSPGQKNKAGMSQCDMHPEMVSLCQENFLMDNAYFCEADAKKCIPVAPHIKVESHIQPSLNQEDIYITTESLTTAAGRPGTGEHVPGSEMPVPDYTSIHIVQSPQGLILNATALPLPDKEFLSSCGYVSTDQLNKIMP
Experimental: This clone can be used to evaluate the effect of different growth hormone samples on the survival of the BAF-3 GHR.
The BAF-3 GHR cells are grown in starvation medium (culture medium without growth hormone) for 24 hrs at 37° C., 5% CO2.
The cells are washed and re-suspended in starvation medium and seeded in plates. 10 μL of growth hormone compound or human growth hormone in different concentrations or control is added to the cells, and the plates are incubated for 68 hrs at 37° C., 5% CO2.
AlamarBlue® is added to each well and the cells are then incubated for another 4 hrs. The AlamarBlue® is a redox indicator, and is reduced by reactions innate to cellular metabolism and, therefore, provides an indirect measure of viable cell number.
Finally, the metabolic activity of the cells is measure in a fluorescence plate reader. The absorbance in the samples is expressed in % of cells not stimulated with growth hormone compound or control and from the concentration-response curves the activity (amount of a compound that stimulates the cells with 50%) can be calculated.

[2] = in vivo, iv
Experimental: (§4) The pharmacokinetic of the compounds of the examples is investigated in male Sprague Dawley rats after intravenous (i.v.) and subcutaneous (s.c.) single dose administration.
(§5) Test compounds are diluted to a final concentration of 1 mg/mL in a dilution buffer consisting of: Glycine 20 mg/mL, mannitol 2 mg/mL, NaHCO3 2.5 mg/mL, pH adjusted to 8.2.
(§6) The test compounds are studied in male Sprague Dawley rats weighing 250 g. The test compounds are administered as a single injection either i.v. in the tail vein or s.c. in the neck with a 25 G needle at a dose of 60 nmol/kg body weight.
(§7) At each sampling time 0.25 ml blood is drawn from the tail vein using a 25 G needle. The blood is sampled into a EDTA coated test tube and stored on ice until centrifugation at 1200×G for 10 min at 4° C. Plasma is transferred to a Micronic tube and stored at −20° C. until analysis.
(§8) A non-compartmental pharmacokinetic analysis is performed on mean concentration-time profiles of each test compound using WinNonlin Professional (Pharsight Inc., Mountain View, Calif., USA). The pharmacokinetic parameter estimates of terminal half-life (t1/2) and mean residence time (MRT) are calculated.

elastase = biological target: T2, elastase (Sus scrofa, UniProt P00772); assay: Protease stability, incubation with elastase; type: in vitro ADME, porcine; conditions: incubation for 4 hours with elastase
T2 construct: purchased Sigma; host or cells: porcine pancreas
T2 sequence (P00772 27-266): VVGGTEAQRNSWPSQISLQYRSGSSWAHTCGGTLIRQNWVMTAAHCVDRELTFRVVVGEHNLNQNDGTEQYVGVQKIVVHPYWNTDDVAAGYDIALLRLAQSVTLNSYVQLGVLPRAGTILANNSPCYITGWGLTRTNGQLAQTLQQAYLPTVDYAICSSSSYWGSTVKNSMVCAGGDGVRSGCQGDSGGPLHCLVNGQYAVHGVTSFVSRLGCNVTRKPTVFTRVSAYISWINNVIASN
Excerpt: (§1) The compound of interest is digested by a relevant protease (Trypsin, Chymotrypsin, Pepsin, Elastase, Factor VIIa, Factor Xa, Proteinase K, Carboxy peptidase, DPPIV, Neutral Endopeptidase, Granzyme B, Proline-endopeptidase, Staphylococcal peptidase I, Thermolysin, Thrombin, Arg-C proteinase, Asp-N endopeptidase, Caspase 1-10, Clostripain, Enterokinase, Glutamyl endopeptidase, Granzyme B, LysC, LysN, Proline-endopeptidase and Staphylococcal peptidase I or tissue extracts.) in an appropriate buffer (e.g. PBS or ammonium bicarbonate) at 37° C. for up till 24 hrs. Proteolytic degradation is assessed by a HPLC assay.
(§2) 100 μL of test compound solution at 1 mg/mL in ammonium bicarbonate buffer is degraded by enzyme for up till 24 hrs at 37° C. […] These diluted samples are analysed by reversed phase HPLC to estimate the degree of proteolytic digestion.
(§3) 10 μL of the above solution is injected on a reversed phase Vydac C4 2×150 mm column eluted with a linear gradient from 0.1% TFA in water to 100% acetonitrile containing 0.1% TFA over a period of 30 min at a flow rate of 0.2 ml/min. […] Percentage (%) intact compound at time point t=T is calculated from the peak area at time point t=T (AT) and the peak area at t=0 (A0) as (AT/A0)×100%. […] Half life (T1/2) is calculated as one phase decay also by GraphPad Prism software. […]

[3] = Pharmacokinetics in Sprague Dawley rats after i.v. and s.c. single dose
Experimental: as §4, §5, §6, §7, §8

chymotrypsin = biological target: T3, chymotrypsin (Bos taurus, UniProt P00766); assay: Protease stability, incubation with chymotrypsin; type: in vitro ADME; conditions: incubation for 4 hours with chymotrypsin
T3 construct: purchased Roche
Excerpt: as §1, §2, §3

With “2-(C20diacid-Trx-γGlu-OEG-OEG-δLys)-carbonylmethylene-S^101-hGH[L101C] [Compound 44.1]” as the substance, how does the “Duration of IGF-1 increase” value (plasma IGF-1) read?
Its value is greater than 48 h.

What about the In vitro potency [1] of the same substance?
Its In vitro potency is 4.7.

And the “T1/2 (i.v. Rat)” value [2]?
The value was 5.6 h.

What about the “MRT” value ([2]; rat, 60 nmol/kg) of the same substance?
Its value is 7.2 h.

What about the “T1/2” value ([2]; rat, 60 nmol/kg) of the same substance?
The value was 5.6 h.

Which “Elastase (% intact GH compound)” value (elastase) does the source give for “hGH: wild-type human growth hormone, 191 amino acid residue protein (SEQ ID NO: 1)” here?
Its value is 25%.

What about the “T1/2 (i.v. Rat)” value ([3]; Table 4) of the same substance?
Its value is 0.23 h.

What about the “T1/2 (i.v. Rat)” value ([3]; Table 5) of the same substance?
The value was 0.23 h.

And the “Chymotrypsin (% intact GH compound)” value (chymotrypsin)?
The value was 40%.
